From PMC12269619, “In silico improvement of affinity for highly protective anti-malarial antibodies” (iScience, 2025)
Ends that are not written are not given here.

Biological target: T1, Biotinylated junctional peptide Pep21 (PfCSP peptide 21) (Plasmodium falciparum 3D7, UniProt Q7K740, also: biotinylated, position not given here)
T1 construct: Plasmodium falciparum circumsporozoite protein (PfCSP), junctional region, residues 101-115; source: synthetic peptide, bought: Genscript
T1 chain: NPDPNANPNVDPNAN
Experiment: BLI; Octet Red384, biotinylated Pep21 on streptavidin biosensors, Fab serially diluted from 1000 to 62.5 nM, 30°C, PBS + 1% BSA, association 60 s, dissociation 180 s, global fit 1:1 Langmuir
Conditions: both partners purified

B1: P3-43 Fab (m43.151 P100K_H) (Fab, V domains shown)
VH: QVHLVQSGAEVKKPGASVKVSCKASGYTFTSYAIHWVRQAPGQRLEWMGWIKGGNGNTRYSQKFQDRVTITRDTSASTAYMELSSLRSEDTAVYYCALLTVITKDDAFDIWGQGTMVTVSS
VL: not shown
notes: as the heavy chain of m5 (PDB 7LKG) with the stated change; own structure deposited here; as the light chain of m5; source: Fab produced from the antibody
Binder B1 has a Kd of 8.9 nM.
